Target: 基孔肯雅病毒E2蛋白 (基孔肯雅病毒标准株S27, UniProt Q8JUX5 326-748)
Test: cell-based or functional assay

Sequence of 基孔肯雅病毒E2蛋白 (Q8JUX5 326-748 limits assumed): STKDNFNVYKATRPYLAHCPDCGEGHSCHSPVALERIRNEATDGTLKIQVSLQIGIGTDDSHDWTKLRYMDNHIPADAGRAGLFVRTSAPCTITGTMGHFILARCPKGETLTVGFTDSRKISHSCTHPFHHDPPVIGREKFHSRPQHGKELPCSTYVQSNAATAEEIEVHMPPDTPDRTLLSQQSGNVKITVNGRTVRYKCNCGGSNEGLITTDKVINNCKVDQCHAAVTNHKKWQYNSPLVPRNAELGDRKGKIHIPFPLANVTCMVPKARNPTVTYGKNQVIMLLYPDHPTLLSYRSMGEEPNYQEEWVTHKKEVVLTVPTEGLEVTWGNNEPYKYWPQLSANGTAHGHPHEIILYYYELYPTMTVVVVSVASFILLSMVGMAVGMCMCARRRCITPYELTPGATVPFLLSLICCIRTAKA

B1: 抗基孔肯雅病毒全人源单克隆抗体8D1 (antibody, human IgG1, kappa, V domains shown)
VH: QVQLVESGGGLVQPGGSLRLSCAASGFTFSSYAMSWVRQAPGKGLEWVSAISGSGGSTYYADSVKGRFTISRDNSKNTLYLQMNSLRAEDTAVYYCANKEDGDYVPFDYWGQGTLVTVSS
VL: DIVMTQSPATLSASVGDRVTITCRASQSISSYLNWYQQKPGKAPKLLIYAASSLQSGVPSRFSGSGSGTDFTLTISSLQPEDFATYYCQQSYFFGPGTKVDIKR
**Q.** Which “IC50, Vero细胞中和实验 (结晶紫染色, 细胞活率)” value does the source give for B1 here?
**A.** 0.12 µg/mL

— patent CN110903386A (INST MILITARY MEDICINE ACADEMY MILITARY SCIENCES PLA, dated 2020)
